Data from article PMC6626044, “Molecular basis of egg coat cross-linking sheds light on ZP1-associated female infertility” (Nature Communications, 2019).
Values belong to the molecule of their own block, whether it stands above or below them.

Legend:
[1] = biological target: chicken ZP1 ZP-N1 domain, recombinant, wild type (chicken); experiment: non-reducing against reducing SDS-PAGE with immunoblot; conditioned medium of transfected HEK293 cells, anti-5His immunoblot; shows only covalent (disulphide-bonded) oligomers
[2] = biological target: chicken ZP1 ZP-N1 domain, recombinant, wild type (chicken); experiment: SEC; IMAC-purified protein, analytical SEC at 4 °C in 20 mM Na-HEPES pH 7.8, 150 mM NaCl (HiLoad 26/600 Superdex 75 pg or Superdex 75 Increase 10/300 GL), fractions on Coomassie-stained SDS-PAGE
[3] = biological target: chicken ZP1, full length, 6His-tagged (chicken); experiment: non-reducing against reducing SDS-PAGE with immunoblot; conditioned medium of transfected HEK293 cells, anti-5His immunoblot; shows only covalent (disulphide-bonded) oligomers
[4] = biological target: chicken ZP4 ZP-N1 domain, 6His-tagged (chicken); experiment: SEC; IMAC-purified protein, analytical SEC at 4 °C in 20 mM Na-HEPES pH 7.8, 150 mM NaCl (HiLoad 26/600 Superdex 75 pg or Superdex 75 Increase 10/300 GL), fractions on Coomassie-stained SDS-PAGE
[5] = biological target: ~21 kDa N-terminal fragment of native chicken ZP1 (chicken); experiment: non-reducing against reducing SDS-PAGE with immunoblot; SEC fractions (Sephacryl S-300 HR) of chicken egg coat solubilised by sperm protease, anti-cZP1 N-terminal fragment polyclonal; bands confirmed by MALDI-MS/MS
[6] = biological target: the molecule itself; experiment: non-reducing against reducing SDS-PAGE with immunoblot; conditioned medium of transfected HEK293 cells, anti-5His immunoblot; shows only covalent (disulphide-bonded) oligomers
[7] = biological target: the molecule itself; experiment: SEC; IMAC-purified protein, analytical SEC at 4 °C in 20 mM Na-HEPES pH 7.8, 150 mM NaCl (HiLoad 26/600 Superdex 75 pg or Superdex 75 Increase 10/300 GL), fractions on Coomassie-stained SDS-PAGE

stoichiometry N [1]: 2
stoichiometry N [2]: 2
Molecule: chicken ZP1 ZP-N1 domain, recombinant, wild type (domain or fragment)

stoichiometry N [3]: 2
Molecule: chicken ZP1, full length, 6His-tagged (natural protein)

stoichiometry N [4]: 2
Molecule: chicken ZP4 ZP-N1 domain, 6His-tagged (from UniProt A0A8V0ZLW5 1-148) (domain or fragment)

stoichiometry N [5]: 2
Molecule: ~21 kDa N-terminal fragment of native chicken ZP1 (domain or fragment)

B1: human ZP1 ZP-N1 domain, H102 mutant (domain or fragment)
chain: RWLQPDPGLPGLRHSYDCGIKGMQLLVFPRPGQTLRFKVVDEFGNRFDVNNCSICYHWVTSRPQEPAVFSADYRGCAVLEKDGRFHLRVFMEAVLPNGRVDVAQDATLICPKPDPSRTLDSQLA
stoichiometry N [6]: 2

B2: human ZP1 ZP-N1 domain, His-tagged, wild type (domain or fragment, UniProt P60852 26-149, looked up)
chain: RWLQPDPGLPGLRHSYDCGIKGMQLLVFPRPGQTLRFKVVDEFGNRFDVNNCSICYHWVTSRPQEPAVFSADYRGCHVLEKDGRFHLRVFMEAVLPNGRVDVAQDATLICPKPDPSRTLDSQLA
notes: signal peptide in the construct; human ZP1 ZP-N1 domain, M1-A149; also called hZP1-N1; hZP1_(M1-A149); source: HEK293T, transiently transfected; conditioned medium, and purified (IMAC, SEC); not shown: His, C-terminal, kept
stoichiometry N [6]: 2

B3: human ZP1 ZP-N1 domain, H82 mutant (domain or fragment)
chain: RWLQPDPGLPGLRHSYDCGIKGMQLLVFPRPGQTLRFKVVDEFGNRFDVNNCSICYAWVTSRPQEPAVFSADYRGCHVLEKDGRFHLRVFMEAVLPNGRVDVAQDATLICPKPDPSRTLDSQLA
stoichiometry N [6]: 2

B4: mouse ZP1 ZP-N1 domain, 6His-tagged, wild type (domain or fragment, UniProt Q62005 21-141, looked up)
chain: QRLHLEPGFEYSYDCGVRGMQLLVFPRPNQTVQFKVLDEFGNRFEVNNCSICYHWVTSEAQEHTVFSADYKGCHVLEKDGRFHLRVFIQAVLPNGRVDIAQDVTLICPKPDHTVTPDPYLA
notes: signal peptide in the construct; mouse ZP1 ZP-N1 domain, M1-A141, in pHLsec3; Heterogeneous glycosylation at N49 and N68 gives two bands on SDS-PAGE; also called mZP1-N1; mZP1-N1_(M1-A141); source: HEK293, transiently transfected; conditioned medium, and purified (IMAC, SEC); not shown: 6His, C-terminal, kept
stoichiometry N [7]: 2

B5: human ZP1, wild type, 6His-tagged (natural protein, UniProt P60852 26-553, looked up)
chain: RWLQPDPGLPGLRHSYDCGIKGMQLLVFPRPGQTLRFKVVDEFGNRFDVNNCSICYHWVTSRPQEPAVFSADYRGCHVLEKDGRFHLRVFMEAVLPNGRVDVAQDATLICPKPDPSRTLDSQLAPPAMFSVSTPQTLSFLPTSGHTSQGSGHAFPSPLDPGHSSVHPTPALPSPGPGPTLATLAQPHWGTLEHWDVNKRDYIGTHLSQEQCQVASGHLPCIVRRTSKEACQQAGCCYDNTREVPCYYGNTATVQCFRDGYFVLVVSQEMALTHRITLANIHLAYAPTSCSPTQHTEAFVVFYFPLTHCGTTMQVAGDQLIYENWLVSGIHIQKGPQGSITRDSTFQLHVRCVFNASDFLPIQASIFPPPSPAPMTQPGPLRLELRIAKDETFSSYYGEDDYPIVRLLREPVHVEVRLLQRTDPNLVLLLHQCWGAPSANPFQQPQWPILSDGCPFKGDSYRTQMVALDGATPFQSHYQRFTVATFALLDSGSQRALRGLVYLFCSTSACHTSGLETCSTACSTGTTRQ
notes: human zona pellucida glycoprotein 1 (hZP1), wild type, synthetic cDNA in pHLsec3; the secreted form in the medium was analysed; also called hZP1; full-length hZP1; source: HEK293T, transiently transfected, secreted into the conditioned medium
stoichiometry N [6]: 2
